Measured values: patent US20230242675A1 (SHANGHAI EPIMAB BIOTHERAPEUTICS, published 2023)

Legend:
[1] = target: human PD-L1/Fc Fusion Protein (human); test: ELISA, scFv supernatant on coated human PD-L1/Fc
Description: Two hundred (200) single bacterial clones from each group of the third panning round were isolated and grown in culture to express a single scFv monoclonal antibodies (mAbs). The scFv mAbs were expressed in the bacterial culture supernatants, which were primarily screened by ELISA. […] 20 ng of human PD-L1/Fc protein in 100 μL PBS, pH 7.4, were directly coated in each well of a 96-well plate. An HRP-linked anti-c-myc antibody (Cat. No. Ab1261, Abcam) and TMB reagent were used to detect and develop the ELISA signal, which was read using a plate reader (SpectraMax® Plus 384; Molecular Devices) at a wavelength of 450 nm.

[2] = target: T1, human PD-L1/His fusion protein (human, UniProt Q9NZQ7 19-239); test: BLI Octet RED96, single concentration of human PD-L1-his
T1 sequence (Q9NZQ7 19-239 limits assumed): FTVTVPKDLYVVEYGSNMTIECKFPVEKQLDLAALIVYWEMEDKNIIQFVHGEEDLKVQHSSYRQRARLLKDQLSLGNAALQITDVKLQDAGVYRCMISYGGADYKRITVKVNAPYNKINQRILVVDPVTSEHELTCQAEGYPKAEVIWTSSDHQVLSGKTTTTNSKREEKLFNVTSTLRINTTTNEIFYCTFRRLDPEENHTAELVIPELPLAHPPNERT
Description: Briefly, antibodies were characterized for affinities and binding kinetics by biolayer interferometry (BLI) using an Octet® RED96 sensor device (Pall ForteBio LLC). Antibodies were captured by anti-hIgG Fc Capture (AHC) Biosensors (Pall) at a concentration of 100 nM for 30 seconds. Sensors were then dipped into running buffer (1×, pH7.2, PBS, 0.05% Tween 20, 0.1% BSA) for 60 seconds to check baseline. Binding was measured by dipping sensors into a single concentration of recombinant human PD-L1-his protein. Dissociation was followed by dipping sensors into running buffer for 1200 seconds. The association and dissociation curves were fitted to a 1:1 Langmuir binding model using the manufacturer's data analysis software (ForteBio Data Analysis software, Pall ForteBio LLC).

[3] = target: T1, human PD-L1/His fusion protein; test: RBA ELISA: coated PD-L1/His, competitor biotinylated PD-1/Fc
Description: Anti-PD-L1 scFv supernatants were tested for ability to block PD-L1/PD-1 interaction. […] The mixtures were added to individual wells and incubated at room temperature for 30 minutes. […] Bound signal was developed by Streptavidin-HRP (Cat. No. S2468, Sigma) and read by a plate reader at a wavelength of 450 nm. A low signal, as with the positive control, indicated blocking activity.

[4] = target: T2, human PD-L1 on the cell surface (CHO-K1 cells stably expressing human PD-L1) (human, UniProt Q9NZQ7 19-290); test: FACS, scFv-phage on CHO-K1/PD-L1 cells
T2 construct: whole, on cells; Also used here for PD-L1 on the monocyte-derived dendritic cells of the MLR assay (functional rows); also called CHO-K1/PD-L1; CHOK1-PD-L1
T2 sequence (Q9NZQ7 19-290): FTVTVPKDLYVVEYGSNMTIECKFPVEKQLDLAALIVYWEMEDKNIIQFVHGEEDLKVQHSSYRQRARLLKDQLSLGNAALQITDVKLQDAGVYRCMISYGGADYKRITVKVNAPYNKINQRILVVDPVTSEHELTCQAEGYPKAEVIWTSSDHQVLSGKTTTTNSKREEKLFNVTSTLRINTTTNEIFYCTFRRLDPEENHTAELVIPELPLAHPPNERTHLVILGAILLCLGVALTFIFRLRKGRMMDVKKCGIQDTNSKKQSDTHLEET
Description: After characterization of ability to bind PD-L1 in ELISA and RBA ELISA, the PD-L1-binding positive scFv clones were sequenced. […] Briefly, 2×10⁵ cells of the CHO-K1/PD-L1 cell line stably expressing huPD-L1 described above were added to round-bottom wells of a 96-well plate (Cat. No. 3799, Corning). A phage supernatant from an overnight culture that had been rescued by hyper phage was added. The mixture of CHO-K1/PD-L1 cells and phage supernatant in each well was diluted with 50 μl of FACS buffer (PBS with 2% FBS). The anti-PD-L1 scFv-phages were detected with murine anti-M13 phage antibody (Cat. No. 11973-MM05, Sino biological) and then with Donkey anti-Mouse IgG (H+L) Highly Cross-Adsorbed, Alexa Fluor® 488 conjugate, secondary antibody (Cat. No. A21202, Invitrogen). Cell fluorescence was monitored using a flow cytometer.

[5] = target: T3, cynomolgus (cyno) PD-L1/His fusion protein (cynomolgus, UniProt G7PSE7 19-239); test: ELISA, scFv supernatant on cynomolgus PD-L1
T3 construct: also called cynomolgus PD-L1; not shown: His tag
T3 sequence (G7PSE7 entry or part of it): as the sequence (Q9NZQ7 19-239 limits assumed) above, with A33T, A34S, S62N, R68Q, Q82R, F173L, T185A, T192I, H215L counted along it

[6] = target: T3, cynomolgus (cyno) PD-L1/His fusion …; test: BLI Octet RED96, cyno PD-L1
[7] = target: T1, human PD-L1/His fusion protein; test: BLI off-rate; test group 3 (reference itself)
Description: (§1) Briefly, antibodies were characterized for affinities and binding kinetics by Octet®RED96 biolayer interferometry (Pall ForteBio LLC). Antibodies were captured by Anti-hIgG Fc Capture (AHC) Biosensors (Pall) at a concentration of 100 nM for 30 seconds. Sensors were then dipped into running buffer (1×pH 7.2 PBS, 0.05% Tween 20, 0.1% BSA) for 60 seconds to check baseline. Binding was measured by dipping sensors into a single concentration of recombinant human PD-L1/His fusion protein (Novoprotein). Dissociation was followed by dipping sensors into running buffer for 1200 seconds. The association and dissociation curves were fitted to a 1:1 Langmuir binding model using ForteBio Data Analysis software (Pall). […] The off-rate ratio serves as a data normalization. Accordingly, in each test group, the off-rate ratios of the humanized antibodies can be compared with that of the chimeric antibody, and the off-rate ratios of each of the humanized antibodies can be compared to one another within all test groups.

[8] = target: T1, human PD-L1/His fusion protein; test: BLI Octet RED96, antibody on AHC sensor, single conc. PD-L1/His; test group 2
Description: as §1

[9] = target: T2, human PD-L1 on the cell surface (CHO-K1 …); test: FACS on CHO-K1/hPD-L1 cells
Description: The ability of the purified antibodies to bind to cell membrane human PD-L1 was determined by FACS analysis. CHO-K1 cells stably expressing human PD-L1 (CHO-K1/hPD-L1 cells) were resuspended in PBS containing 2% FBS (FACS buffer) and seeded at 1×10⁵ cells/well into 96-well round-bottomed plates (Corning; Cat. No. 3799). […] The assay plate was then read on a flow cytometer. The data were processed by GraphPad software, and EC50 values were calculated. The EC50 for binding activity according to this FACS analysis is the concentration at which of an antibody induces a response halfway between the baseline and maximum and reflects the binding ability of the antibody.

[10] = target: human PD-L1/Fc Fusion Protein (human); test: RBA ELISA: coated PD-L1/Fc, competitor biotinylated human PD-1
Description: ELISA plates were coated with 100 μl of 1 μg/ml of human PD-L1/Fc in PBS and incubated overnight at 4° C. Plates were washed four times in washing buffer (PBS containing 0.05% Tween 20) and blocked for 1 hour at 37° C. with 200 μl per well of blocking buffer (1% BSA in PBS containing 0.05% Tween 20). […] A human IgG was included as negative control. The signal was developed by adding streptavidin-HRP (Cat. No. S2468, Sigma) (100 μl/well at 1:5000 dilution) and incubating for 40 minutes at 37° C., followed by washing four times in washing buffer. Then, 100 μl of TMB solution were added per well. Following color development, the reaction was stopped with 1 N HCl, and absorbance at 450 nm was measured. The data were processed by GraphPad software, and IC50 values were calculated. […] The signal reduction induced by antibody samples was normalized to inhibition percentage, where the negative control was 0% inhibition, and the absolute value of signal reduction of each antibody divided by the signal of the negative control equals the percent inhibition by the antibody.

[11] = target: T1, human PD-L1/His fusion protein; test: BLI off-rate; test group 2 (reference itself)
Description: as §1

[12] = target: T1, human PD-L1/His fusion protein; test: BLI Octet RED96, antibody on AHC sensor, single conc. PD-L1/His; test group 1
Description: as §1

[13] = target: T1, human PD-L1/His fusion protein; test: BLI off-rate; test group 1 (reference itself)
Description: as §1

[14] = target: T1, human PD-L1/His fusion protein; test: ELISA, coated human PD-L1 protein, anti-human Fc detection
Description: (§2) The ability of an antibody to bind human or cynomolgus (cyno) PD-L1 (binding activity) was determined by ELISA. ELISA plates were incubated overnight at 4° C. with 50 μl of the human or cyno PD-L1 protein described above diluted in PBS buffer, pH 7.4, at 1 μg/ml. Plates were washed four times in washing buffer (PBS containing 0.05% Tween 20) and blocked for 1 hour at 37° C. with 200 μl per well of blocking buffer (1% BSA in PBS containing 0.05% Tween 20). After blocking buffer was removed, diluted purified antibodies (200 nM and 1:5 serial dilutions to provide 7 concentrations of each antibody) were added to the wells at 100 μl per well and incubated at 37° C. for 1 hour. The wells were washed four times with washing buffer, and anti-human IgG (Fc-specific) HRP-conjugated antibody (Sigma), diluted 1:10,000, was added to the wells at 100 μl per well. The plates were incubated for 1 hour at 37° C. and washed four times in washing buffer. 100 μl of tetramethylbenzidine (TMB) chromogenic solution were added per well. Following color development, the reaction was stopped with 1 N HCl, and absorbance at 450 nm was measured on a VARIOSKAN™ LUX multimode microplate reader (ThermoFisher Scientific, Vataa, Finland). The data were processed by GraphPad software, and EC50 values were calculated. The EC50 for binding activity according to this ELSA is the concentration at which an antibody induces a response halfway between the baseline and maximum and indicates the binding ability of the antibody.

[15] = target: T1, human PD-L1/His fusion protein; test: BLI off-rate; test group 4 (reference itself)
Description: as §1

[16] = target: T1, human PD-L1/His fusion protein; test: BLI Octet RED96, antibody on AHC sensor, single conc. PD-L1/His; test group 3
Description: as §1

[17] = target: T3, cynomolgus (cyno) PD-L1/His fusion …; test: ELISA, coated cyno PD-L1 protein
Description: as §2

[18] = target: T1, human PD-L1/His fusion protein; test: BLI Octet RED96, antibody on AHC sensor, single conc. PD-L1/His; test group 4
Description: as §1

[19] = target: T1, human PD-L1/His fusion protein; test: BLI Octet RED96, antibody on AHC sensor, PD-L1/His in solution
Description: Binding of antibodies to PD-L1 was also assessed using biolayer interferometry (BLI) using an Octet® RED96 sensor device (Pall ForteBio LLC). Antibodies were captured by anti-hIgG Fc capture (AHC) Biosensors (Pall) at a concentration of 100 nM for 30 seconds. Sensors were then dipped into running buffer (1×pH7.2 PBS, 0.05% Tween 20, 0.1% BSA) for 60 seconds to check the baseline. Binding was measured by dipping sensors into a series of diluted concentrations of recombinant human PD-L1/His fusion protein. Dissociation was followed by dipping sensors into running buffer for 1200 seconds. The association and dissociation curves were fitted to a 1:1 Langmuir binding model using ForteBio Data Analysis software (Pall). The equilibrium dissociation constant KD (molarity) of the reaction between antibodies and related target proteins was then calculated from the kinetic rate constants using the formula KD=koff/kon.

human PD-L1/Fc Fusion Protein (human), sequence (chain, as listed by the source limits assumed): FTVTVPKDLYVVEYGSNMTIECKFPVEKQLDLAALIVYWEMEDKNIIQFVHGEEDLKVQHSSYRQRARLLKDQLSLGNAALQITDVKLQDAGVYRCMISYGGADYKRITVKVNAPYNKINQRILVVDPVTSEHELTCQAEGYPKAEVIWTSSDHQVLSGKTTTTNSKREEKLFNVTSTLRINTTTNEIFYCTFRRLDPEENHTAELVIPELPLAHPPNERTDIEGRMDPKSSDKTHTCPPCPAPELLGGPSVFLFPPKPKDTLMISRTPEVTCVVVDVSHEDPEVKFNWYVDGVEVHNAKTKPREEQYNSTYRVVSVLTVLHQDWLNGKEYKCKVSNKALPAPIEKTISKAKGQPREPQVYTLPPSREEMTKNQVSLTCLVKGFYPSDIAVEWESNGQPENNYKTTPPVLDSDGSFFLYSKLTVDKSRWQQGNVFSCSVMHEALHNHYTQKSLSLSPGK

B1: EM0005-mAb86 scFv (scFv)
scFv: QVQLQQSGAELVRPGSSVKMSCKTSGYTFTTYGINWVKQRPGQGLEWIGYIYIGNGYTEYNEKFKGKATLTSDPSSRTAYMQLSSLTSEDSAIYFCARDLMVIAPKTMDYWGQGTSVTVSSGGGGSGGGGSGGGGSDIQMNQSHKFMSTSVGDRVSITCKASQDVGTAVAWYQQKPGQSPKLLIYWASTRHTGVPDRFTGGGSGTDFTLTISNVQSEDLADYFCQQYSSYPYTFGGGTKLEMK
notes: Tested as bacterial culture supernatant (detected with anti-c-myc antibody; tags of the pCAN phagemid not spelled out for library clones) and as scFv-displaying phage in FACS; also called 3A3
[1]
  EC50: 1.19 nM
[2]
  koff: 0.000197 s⁻¹
[3]
  RBA (% inhibition): 100%
[4]
  Binding to CHOK1-PD-L1 (X Geo Mean): 27.6
[5]
  EC50: 4 nM

B2: EM0005-mAb87c (antibody, human IgG1, kappa, V domains shown)
VH: EVQLQQSGPELVKPGASVKISCKASGYSFTDYYINWVKQSPEKSLEWIGETIPNTGGTTYNQKFKAKATLTVDKSSSTAYMQLKSLTSEDSAVYYCARYQSGSPFAYWGQGTPVTVSS
VL: DIVMTQSQKFMSTTVGDRVSITCKASQNVGTAVAWYQQKPGQSPKLLIYSASNRYTGVPDRFTGSGSGTDFTLTISNMQSEDLADYFCQQHYSTPYTFGGGTKLEIKR
notes: Chimeric full-length IgG1; also called EM0005-87c
[6]
  Kd: 0.493 nM
[7]
  Off-Rate Ratio to that of EM0005-87c: 100%
[8]
  koff: 0.00104 s⁻¹
[9]
  EC50: 0.42 nM
[10]
  IC50: 0.94 nM
  Inhibition (percent): 93.9%
[11]
  Off-Rate Ratio to that of EM0005-87c: 100%
[12]
  koff: 0.00147 s⁻¹
[13]
  Off-Rate Ratio to that of EM0005-87c: 100%
[14]
  EC50: 0.08 nM
[15]
  Off-Rate Ratio to that of EM0005-87c: 100%
[16]
  koff: 0.00135 s⁻¹
[17]
  EC50: 0.06 nM
[18]
  koff: 0.000897 s⁻¹
[19]
  Kd: 0.981 nM

B3: EM0005-mAb87 scFv (scFv)
scFv: EVQLQQSGPELVKPGASVKISCKASGYSFTDYYINWVKQSPEKSLEWIGETIPNTGGTTYNQKFKAKATLTVDKSSSTAYMQLKSLTSEDSAVYYCARYQSGSPFAYWGQGTPVTVSSGGGGSGGGGSGGGGSDIVMTQSQKFMSTTVGDRVSITCKASQNVGTAVAWYQQKPGQSPKLLIYSASNRYTGVPDRFTGSGSGTDFTLTISNMQSEDLADYFCQQHYSTPYTFGGGTKLEIK
notes: Tested as bacterial culture supernatant and as scFv-displaying phage in FACS; tags of the pCAN phagemid not spelled out for library clones; also called 4E8
[1]
  EC50: 3.02 nM
[2]
  koff: 0.000206 s⁻¹
[3]
  RBA (% inhibition): 99.8%
[4]
  Binding to CHOK1-PD-L1 (X Geo Mean): 49.7
[5]
  EC50: 4 nM
